# Source: the nanobody polyreactivity screen of Harvey et al. (2022)
# Experiment: yeast display, Sf9 membrane polyspecificity reagent, FACS + sequencing; frameworks hold sequencing errors
# Procedure, shortened: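 Galactose induction of a Saccharomyces cerevisiae BJ5465 synthetic nanobody display library ran 36–48 hours. The cells were then stained for 1 hour at 4 °C with 10% biotinylated, detergent-solubilized Sf9 membrane reagent, pulled down on streptavidin microbeads and FACS-sorted into low and high (top ~1%) gates on expression and reagent-binding fluorescence. Labels for polyreactivity follow the gate of origin.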
row,Sequence,polyreactivity (PSR sort gate)
1,QVQLVESGGGLVQAGGSLRLSCAASGSTLISYAMGSYRQAPGKERELDAAITYNGGTTHYADSVKGRLTISRDNAKNSVYLQLKSLKPEDTAVYYCAKAQGHVRVSRGLQGGRYDYWGQGTQVTVSS,low polyreactivity
2,QVQLVESGGGLVQAGGSLRLSCAASGSTLISYTMGWYRQAPGKERELVAAITSAVTTYYADSVKGRFTISRDNAKNTVYLQMNSLKPEDTAVYYCNTYPFKTLPYRYPRGDYWGQGTQVTVSS,low polyreactivity
3,QVQLVESGGGLVQAGGSLRLSCAASGSTLIVYAMGWYRQAPGKEREFVAGITVSTGSTYYADSVKGRFTISRDNAKNTVYLQMNSQKPEDTAVYYCAADIRDGWDYFLFWEDGMDYSGQGTQVTVSS,low polyreactivity
4,QVQLVESGGGLVQAGGSLRLSCAASGSTLKYNAMGWYRQAPGKEREFVASITLSACRTYYADSVKGRFTISRDNAKNTVYLQMNSLKPEDTAVYYCAARRYFSYRYDYWGQGTQVTVSS,high polyreactivity
5,QVQLVESGGGLVQAGGSLRLSCAASGSTLKYYAMGWYRQAPGKERELVARITRSSGSTYYADSVKGRFTISRDNAKNTVFLHMNSLKPEDTAVYYCNKVYKSYYCGCYDWGQGTQVTVLS,high polyreactivity
6,QVQLVESGGGLVQAGGSLRLSCAASGSTLLFYAMGWYRQAPGKEREFLATITFRGGSTYYADSVKGRFTISRDNAKNTVYLQMNSLKPEDTAVYYCNAGSRRGYYRSRPGGYCGQGTQVTVSS,high polyreactivity
7,QVQLVESGGGLVQAGGSLRLSCAASGSTLLVYAMGWYRQAPGKERELVAAITYSGTTTYYADSVKGRFTISRDNAKNTVYLQMNSLKPEDTAVYYCAKYPGYFQGNYWGQGTQVTVSS,low polyreactivity
8,QVQLVESGGGLVQAGGSLRLSCAASGSTLLYYAMGWYRQAPGKERELVAAISWRGGSTYYADSVTGRFTISRDNAKTTVYLQINSLKPEDTAVYYCARDIRLKGFRYDYWGQGTQVTVSS,high polyreactivity
9,QVQLVESGGGLVQAGGSLRLSCAASGSTLNDYAMGWYRQSPGKERELVAGINRGGSTNYADSVKGRFTISRDNAKNTVYLQMKSLKPVDTAVYYCAVRAYRWRSTLGLYYWGQGTQVTVSS,high polyreactivity
10,QVQLVESGGGLVQAGGSLRLSCAASGSTLNRNVMGWYRQAPGKEREFVAVITYGVGSTYYADSVKGRFTISRDNAKNTVYLQMNSLKPEDTAVYYCNKDPLVFDYWGQGTQVTVSS,low polyreactivity
11,QVQLVESGGGLVQAGGSLRLSCAASGSTLRGYAMGWYRQAPGKERELVARITSGGRTSYADSVKGRFTISRDNAKNTVYLQMNSLKPEDTAVYYCATRIYGWSFGSWYKYDYWGQGTQVTVSS,low polyreactivity
12,QVQLVESGGGLVQAGGSLRLSCAASGSTLRGYTMGWYRPAPGKERELVAAISWSGASTYYADSVKGRFTISRDSAKNTVYLQMNSLKPEVTAVYYCAVRYWAPYDEYGYWGQGTQVTVSS,high polyreactivity
13,QVQLVESGGGLVQAGGSLRLSCAASGSTLRGYTMGWYRQAPGKERELVAAISWSGASTYYADSVKGRFTISRDNAKNTVYLQMNSLKPEDTAVYYCYRAGRYVREYTVDYWGQGTQVTVSS,high polyreactivity
14,QVQLVESGGGLVQAGGSLRLSCAASGSTLRRHAMGWYRQAPGKERELVAAISSGGSTYYEDSVKGRFTISRDNAKNTVYLQMNSLKPEDTAVYYCAAPYSYRTWYPYGYWVQGTQVTVSS,high polyreactivity
15,QVQLVESGGGLVQAGGSLRLSCAASGSTLRRNAMGWYRQAPGKERELVAAISSGGSTYYADSVKGRFTISRDNAKNTVYLQMNSLKPEDTAVYYCNAAVPRGRYTSYYRSGWLDYWGQGTQVTVSS,high polyreactivity
16,QVQLVESGGGLVQAGGSLRLSCAASGSTLRRYAMGWYRQAPGKERELVAAISGTGSRTYYADSVKGRFSISRDNATNTVYLHMISLKREDTAVYYCNASPYGLTENDYWGQGTQVTVSS,high polyreactivity
17,QVQLVESGGGLVQAGGSLRLSCAASGSTLRRYAMGWYRQAPGKERELVAAITSRGTDTYYADSVKGRFTISRDNAKNTVYLQMNSLKPEDTAVYYCANRRGYVYYPGYDYWGQGTQVTVSS,high polyreactivity
18,QVQLVESGGGLVQAGGSLRLSCAASGSTLRYYAMGSYRQAPGKERELVAAISTGGSTYYADSVKGRFTISRDNAKNTVYLQMNSLKPEDTAVYYSAADGYAHVWDYAYDYWGQGTQVTVSS,low polyreactivity
19,QVQLVESGGGLVQAGGSLRLSCAASGSTLSAYVMGWYRQAPGKERELVAAITRGGNTYYADSVKGRFTISRDNAKNTVYLQMNSLKPEDTAVYYCAARTYVSYGYYTRNYWGQGTQVTVSS,high polyreactivity
20,QVQLVESGGGLVQAGGSLRLSCAASGSTLSDNAMGWYRQAPGKERELVARISGDGSTNYADSVKGRFTISRDNAKNTVYLQMNSLKPEDTAVYYCNAGTAGIYYYGKSDYWGQGTQVTVSS,low polyreactivity
21,QVQLVESGGGLVQAGGSLRLSCAASGSTLSFNAMGWYRQAPGKERELVAGITYSGASTYYADSVKGRFTISRDNAKNTVYLQMNSLKPEDTAVYYCAADSPYQIYYYWGQGTQVTVSS,low polyreactivity

row,Sequence,polyreactivity (PSR sort gate)
1,QVQLVESGGGLVQAGGSLRLSCAASGSTLSKYAMGWYRQAPGKEREFVAAISRSGGSTYYADSVKGRFTISRDKAKNTVYLQMNSLKPEDTAVYYCAKVLRTFSGLYYWGQGTQVTVSS,high polyreactivity
2,QVQLVESGGGLVQAGGSLRLSCAASGSTLSKYAMGWYRQAPGKERELVATISIRGGNTYYADSVKGRFTFSRDNAKNTVYLQMNSLKPEDTAVYYCAARRVNAPPSYRQKAGYDYWGQGTQVTVSS,high polyreactivity
3,QVQLVESGGGLVQAGGSLRLSCAASGSTLSQYAMGLYRQAPGKERELVAAITKSGVRTYYPDSVKGRFTISRDNAKNTVYLQMNSLKREDTAVYYCAKATTKYIAPYDYWGQGTQVTVSS,high polyreactivity
4,QVQLVESGGGLVQAGGSLRLSCAASGSTLSRYVMGWYRRAAGKERELVAAISSSGGSTYYADSVKGRFTISRDNAKNTVYLQMNSLKPEDTADYYCNVDHWRRGRSDNYWGQGTQVTVSS,high polyreactivity
5,QVQLVESGGGLVQAGGSLRLSCAASGSTLSYYAMGWYRQAPGKEREWVAAISLSVGSTYYADSVKGRFTISRDNAKNTVYLQMNSLKPEETAVYYCAADDFYSGPFRGDYWGQGTQVTVSS,low polyreactivity
6,QVQLVESGGGLVQAGGSLRLSCAASGSTLTFNAMGWYRQAPWKERELVAAISWSDTDTYYADSVKGRFTISRDNAKNTVYLQINSLKPEDTAVYYCAATLSAYEMDYWGQGTQVTVSS,low polyreactivity
7,QVQLVESGGGLVQAGGSLRLSCAASGSTLTRNTMGWYRQAPGKERELVATITRSGGSTYYADSVKGRFTISRDNAKNTVYLQMNSLKPEDTAVYYCAKRGRLRNYDYWGQGTQVTVSS,high polyreactivity
8,QVQLVESGGGLVQAGGSLRLSCAASGSTLVGYAMGWYRQAPGKERELVAAISSSGTSTYYADSVKGRFSISRDNAKNTVYLQMNSLKPEDTAVYYCSARQRGTYGYWGQGTQVTVSS,high polyreactivity
9,QVQLVESGGGLVQAGGSLRLSCAASGSTLVTNAMGWYRQAPGKERELVAAITFSGGTTYYADSVKGLFTISRDNAKNTVYLQMNSLKPEDTAVYYCAAEIWLEYVGYDYWGQGTQVTLSS,high polyreactivity
10,QVQLVESGGGLVQAGGSLRLSCAASGSTLVTYAMGWYRQAPGKERELVARIDSGGSTNYADSVKGRFTISRDNAKNTVYLQMNSLKPEDTAVYYCSAGGGFYFIWTMDYWGQGTQVTVSS,low polyreactivity
11,QVQLVESGGGLVQAGGSLRLSCAASGSTLVVNGMGWYRQAPGKERELVASISSDGSTNYADSVKGRFTISRDNAKNTVYLQMNSLKPEDTAVYYCAADEGTGQASLSSNLYDYWGQGTQVTVSS,low polyreactivity
12,QVQLVESGGGLVQAGGSLRLSCAASGSTLVYYDMGWSRQAPGKERELVATITGTDSTYYADSVKGRFTISRDNAKNTVYLQMNSLKPEDTADCAADRAASRPDYDYWGQGTQVTVSS,low polyreactivity
13,QVQLVESGGGLVQAGGSLRLSCAASGSTLWANAMGWYRQAPGKERELVAAISWRGGRTYYADSVKGRFTISRDNAKNTVYLQMNSLKPEDTAVYYCNAVSYYRPRSDYGGQGTQVTVSS,high polyreactivity
14,QVQLVESGGGLVQAGGSLRLSCAASGSTLWFNAMGWYRQAPGKERELVAAISFSSGSTYYADSVKGRFTISRDNAKNTVYLQMNSLKPEDTAVYYCAARLRWWGYDYWGQGTQVTVSS,high polyreactivity
15,QVQLVESGGGLVQAGGSLRLSCAASGSTLWWYDMGWYRQAPGKERELVAAINSGGSTNYADSVKGRFTISRDNAKNTVYLQMNSLKPEDTAVYYCNTDGEVTYDYWGQGTQVTVSS,low polyreactivity
16,QVQLVESGGGLVQAGGSLRLSCAASGSTLYAYAMGWYRQAPGKERELVAAISRSGGSTYYAYSVKGRFTISRDNAKNTVYLQMNSLKPEDTAVYYCNAYYRYFRSIYDSWGQGTQVTVSS,high polyreactivity
17,QVQLVESGGGLVQAGGSLRLSCAASGSTLYFYAMGWYRQAPGKERELVASISGTGGRTDYADSVKGRFTISRDNAKNTVYLQMNSLKPEDTAVYYCAARGLVYQSNRYYGYRDYYYWGQGTQVTVSS,high polyreactivity
18,QVQLVESGGGLVQAGGSLRLSCAASGSTLYGNVMGWFRQAPGKERELVATINRGGSTNYADSVKGRFTISRDNAKNTVYLQMNSLKPEDTAVYYCAVYHYSSYEYLGQGTQVTVSS,low polyreactivity
19,QVQLVESGGGLVQAGGSLRLSCAASGSTLYGYAMGWYRQAPGKERELVAAISSSGTRTYYADSVKGRFTISRDNAKNSVYLQMNSLKPEDTAVYYCNAYYYIPFEGRGYSKMDYWGQGTQVTVSS,high polyreactivity
20,QVQLVESGGGLVQAGGSLRLSCAASGSTLYIYAKGWYRQAPGKETEFDADFSWSGGSTYYADSVKGRFTISRDYASNTVYLQMNSQKPEDTAVYNCNGDFTDSYLSRYDYWGQGTQVTVSS,low polyreactivity
